“Also recorded” adds a separate entry of the source.
How the values were obtained:
[1] = biological target: T1, M2 muscarinic acetylcholine receptor (M2AchR) (Rattus norvegicus, UniProt P10980); test: CRE-SEAP reporter gene assay, coupling of Gαs-based chimeric G proteins with M2AchR (transient); format: cell-based; details: 10 uM acetylcholine; for increase in SEAP activity: HEK-293 cells cotransfected with chimera, M2AchR and CRE-SEAP
T1 construct: expressed in transfected cells; host or cells: HEK-293
T1 sequence (P10980 1-466): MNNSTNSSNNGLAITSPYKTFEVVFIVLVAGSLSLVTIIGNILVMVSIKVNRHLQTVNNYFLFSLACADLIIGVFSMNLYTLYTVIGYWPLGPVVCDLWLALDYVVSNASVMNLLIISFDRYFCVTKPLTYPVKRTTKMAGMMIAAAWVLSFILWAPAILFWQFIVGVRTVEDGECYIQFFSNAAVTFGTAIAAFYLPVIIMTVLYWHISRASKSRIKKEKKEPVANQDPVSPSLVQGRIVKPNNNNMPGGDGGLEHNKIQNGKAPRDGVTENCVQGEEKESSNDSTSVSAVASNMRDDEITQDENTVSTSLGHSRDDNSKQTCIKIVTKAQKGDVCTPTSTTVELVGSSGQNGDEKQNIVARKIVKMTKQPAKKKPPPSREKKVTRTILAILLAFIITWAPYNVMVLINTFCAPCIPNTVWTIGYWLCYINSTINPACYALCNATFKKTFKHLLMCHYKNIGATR
Procedure: The constructs encoding chimeric G proteins were made by substituting C-terminal amino acids of Gαs (SEQ ID NO: 1) with the corresponding C-terminal amino acid sequences of other Gα subunits. A first set of Gαs-based chimeric G proteins was prepared by designing constructs encoding seven Gαs-Gαi chimeras in which the C-terminal 5, 11, 13, 28, 65, 84, or 131 amino acids of Gαs were substituted with the corresponding C-terminal amino acids from the […]. Briefly, HEK-293 cells were cotransfected with chimera constructs together with the CRE-SEAP reporter gene construct and a cDNA encoding the M2 muscarinic acetylcholine receptor (M2AchR), a GPCR that couples to Gαo but not to Gαs and inhibits cAMP production. The transfected cells were cultured in the presence or absence of acetylcholine and then assayed for SEAP activity.
A series of chimeric constructs were prepared in which the final 13 C-terminal amino acids of the Gαs subunit were substituted with the final 13 C-terminal amino acids from Gαo, Gαz, Gαt, Gαq, or Gα15 subunits. Also tested were the Gαs-Gαi-13 and a chimera containing the last 5 C-terminal amino acids of Gαk (Gαs-Gαk-5 (SEQ ID NO: 2)). These chimeric constructs were tested for coupling with M2AchR. […] The Gαs-Gαo-13 (SEQ ID NO: […]) and Gαs-Gα15-13 (SEQ ID NO: 7) allowed approximately 2-fold increases in SEAP activity.
(§1) Chimeric G protein cloning: An insert containing rat Gαs cDNA was cut out using the restriction enzymes SaII and HinDIII, and ligated into pcDNA3.1(−) cut with XhoI and HinDIII. The chimeric G proteins with the desired C-terminal amino acid substitutions were prepared by PCR using Gαs as a template. More specifically, Gαs was PCR amplified between an internal EcoRI site and the stop codon, with a 3′ HinDIII placed immediately after the stop codon. A different 3′ oligonucleotide was used for each Gαs chimera and contained a 39 bp sequence that encoded the substituted amino acids at the C-terminus selected from the donor Gα subunit.
M2AchR GPCR cloning: Rat M2AchR receptor was cloned by PCR from cDNA templates (ATCC) and ligated into pcDNA 3.1(−) for expression in mammalian cells.
CRE-SEAP Reporter Gene Assay: 0.5×10^5 HEK-293 cells (ATCC) were seeded into each well of a 96 well plate 24 hours prior to transfection. cDNAs encoding M2AchR, SEAP reporters (Mercury Pathway Profiling System, BD Biosciences), and G protein chimeras were transfected into HEK-293 cells using lipofectamine reagent (Invitrogen) according to the manufacturer's protocols. […]
Following transfection, the cells were maintained for 48 hours in 200 ul serum free media containing 10 uM acetylcholine (Sigma). […] Fluorescence was then measured using a CytoFluor 4000 multi well plate reader (Applied Biosystems).

[2] = system: nine GPCRs that do not bind to Gαs (serotonin 1b, neuropeptide Y1, leukotriene B4, dopamine D4, GNRH, UDP, calcium-sensing, T1R2/T1R3); test: CRE-SEAP reporter gene assay, coupling of chimeric G proteins with a variety of GPCRs; format: cell-based; details: HEK-293 cells, GPCR ligand 48 hours
Text: The GPCRs examined were those that couple with Gαi/Gαo subunits (serotonin 1b, neuropeptide Y1, leukotriene B4, and dopamine D4), Gαq (GNRH, UDP, and calcium-sensing receptors), and the orphan mammalian sweet taste receptor complex (T1R2 and T1R3) with unknown coupling preference. The Gαs-based chimeric G proteins examined in this example were Gαs-Gαi-5, Gαs-Gαt-13 (SEQ ID NO: 3), Gαs-Gαo-13 (SEQ ID NO: 4), Gαs-Gαi-13 (SEQ ID NO: 5), Gαs-Gαz-6 (SEQ ID NO: 18), Gαs-Gα15-13 (SEQ ID NO: 7), Gαs-Gαk-5 (SEQ ID NO: 2), and Gαs-Gαq-13 (SEQ ID NO: 8). The chimeric G protein constructs were prepared as described herein. For the coupling assay, HEK-293 cells were cotransfected with each of the Gαs-based chimeric G protein constructs of interest together with the CRE-SEAP reporter gene construct and a cDNA encoding the GPCR to be tested. The transfected cells were cultured in the presence or absence of a GPCR ligand and then assayed for SEAP activity.
as §1, with “substitutions from the Gαi, Gαt, Gαo, Gαz, Gα15, Gαk, and Gαq” for “substitutions”
GPCR cloning: Mouse 5-HT1B, mouse dopamine D4, human GNRH, and human neuropeptide Y1 receptors were cloned by PCR from cDNA templates (ATCC) and ligated into pcDNA 3.1(−) (Invitrogen) for expression in mammalian cells. […]
Following transfection, the cells were maintained for 48 hours in 200 ul serum free media containing GPCR ligand. […] Fluorescence was then measured using a CytoFluor 4000 multi well plate reader (Applied Biosystems).

| Molecule | ligand induced increases in SEAP activity mediated by M2AchR (in words) ([1]; HEK-293 cells) | GPCRs tested that coupled to the chimera [2] | increase in SEAP activity [1] |
| --- | --- | --- | --- |
| Gαs-Gαi-13: Gαs-based chimeric G protein, C-terminal 13 amino acids of Gαs substituted with those of Gαi (protein, Chimeric protein, Gαs-based chimeric G protein, C-terminal 13 amino acids of Gαs substituted with those of Gαi) MGCLGNSKTEDQRNEEKAQREANKKIEKQLQKDKQVYRATHRLLLLGAGESGKSTIVKQMRILHVNGFNGEGGEEDVPDYASNSDGEKATKVQDIKNNLKEAIETIVAAMSNLVPPVELANPENQFRVDYILSVMNVPNFDFPPEFYEHAKALWEDEGVRACYERSNEYQLIDCAQYFLDKIDVIKQADYVPSDQDLLRCRVLTSGIFETKFQVDKVNFHMFDVGGQRDERRKWIQCFNDVTAIIFVVASSSYNMVIREDNQTNRLQEALNLFKSIWNNRWLRTISVILFLNKQDLLAEKVLAGKSKIEDYFPEFARYTTPEDATPEPGEDPRVTRAKYFIRDEFLRISTASGDGRHYCYPHFTCAVDTENIRRVFNDCRDVIIKNNLKDCGLF | Particularly effective; also recorded: highest responses | seven of the nine |  |
| Gαs-Gαz-13: Gαs-based chimeric G protein, final 13 C-terminal amino acids substituted with those of Gαz (protein, Chimeric protein, Gαs-based chimeric G protein, final 13 C-terminal amino acids substituted with those of Gαz) MGCLGNSKTEDQRNEEKAQREANKKIEKQLQKDKQVYRATHRLLLLGAGESGKSTIVKQMRILHVNGFNGEGGEEDVPDYASNSDGEKATKVQDIKNNLKEAIETIVAAMSNLVPPVELANPENQFRVDYILSVMNVPNFDFPPEFYEHAKALWEDEGVRACYERSNEYQLIDCAQYFLDKIDVIKQADYVPSDQDLLRCRVLTSGIFETKFQVDKVNFHMFDVGGQRDERRKWIQCFNDVTAIIFVVASSSYNMVIREDNQTNRLQEALNLFKSIWNNRWLRTISVILFLNKQDLLAEKVLAGKSKIEDYFPEFARYTTPEDATPEPGEDPRVTRAKYFIRDEFLRISTASGDGRHYCYPHFTCAVDTENIRRVFNDCRDVIIQNNLKYIGLC |  |  | approximately 2 fold |
| Gαs-Gα15-13: Gαs-based chimeric G protein, final 13 C-terminal amino acids substituted with those of Gα15 (protein, Chimeric protein, Gαs-based chimeric G protein, final 13 C-terminal amino acids substituted with those of Gα15) MGCLGNSKTEDQRNEEKAQREANKKIEKQLQKDKQVYRATHRLLLLGAGESGKSTIVKQMRILHVNGFNGEGGEEDVPDYASNSDGEKATKVQDIKNNLKEAIETIVAAMSNLVPPVELANPENQFRVDYILSVMNVPNFDFPPEFYEHAKALWEDEGVRACYERSNEYQLIDCAQYFLDKIDVIKQADYVPSDQDLLRCRVLTSGIFETKFQVDKVNFHMFDVGGQRDERRKWIQCFNDVTAIIFVVASSSYNMVIREDNQTNRLQEALNLFKSIWNNRWLRTISVILFLNKQDLLAEKVLAGKSKIEDYFPEFARYTTPEDATPEPGEDPRVTRAKYFIRDEFLRISTASGDGRHYCYPHFTCAVDTENIRRVFNDCRDSVLARYLDEINLL |  |  | approximately 2 fold |
